# Assay results taken from ChEMBL document CHEMBL1140886, “Development of an optimized activatable MMP-14 targeted SPECT imaging probe” (Bioorg Med Chem, 2009).
# System: CC[C@H](C)[C@H](NC(=O)[C@H](CCCNC(=N)N)NC(=O)CNC(=O)[C@@H](N)CO)C(=O)NCC(=O)N[C@@H](Cc1ccccc1)C(=O)N[C@@H](CC(C)C)C(=O)N[C@@H](CCCNC(=N)N)C(=O)N[C@H](C(=O)N[C@@H](C)C(=O)O)[C@@H](C)O
# Experiment: Ratio of kcat/km for human recombinant MMP14 assessed as drug cleavage
substance,measurement,value
Matrix metalloproteinase-14 (Homo sapiens) (from UniProt P50281),kcat/Km,777000 M⁻¹ s⁻¹
